Experimental data: US11142548B2, “Agents that activate CD47 and their use in the treatment of inflammation” (SORBONNE UNIVERSITE, priority 2016, dated 2021)

What was measured:
[1] = biological target: CD47 (Homo sapiens, UniProt Q08722); conditions: comparison in words, no test described; cited from earlier work
[2] = biological target: T1, HTRA1 (Homo sapiens, UniProt Q92743); assay: HTRA1 cleavage sites of TSP1 by LC-MS/MS; type: biochemical; conditions: post-digestion fragments
T1 construct: purchased R & D
T1 sequence (Q92743 23-480): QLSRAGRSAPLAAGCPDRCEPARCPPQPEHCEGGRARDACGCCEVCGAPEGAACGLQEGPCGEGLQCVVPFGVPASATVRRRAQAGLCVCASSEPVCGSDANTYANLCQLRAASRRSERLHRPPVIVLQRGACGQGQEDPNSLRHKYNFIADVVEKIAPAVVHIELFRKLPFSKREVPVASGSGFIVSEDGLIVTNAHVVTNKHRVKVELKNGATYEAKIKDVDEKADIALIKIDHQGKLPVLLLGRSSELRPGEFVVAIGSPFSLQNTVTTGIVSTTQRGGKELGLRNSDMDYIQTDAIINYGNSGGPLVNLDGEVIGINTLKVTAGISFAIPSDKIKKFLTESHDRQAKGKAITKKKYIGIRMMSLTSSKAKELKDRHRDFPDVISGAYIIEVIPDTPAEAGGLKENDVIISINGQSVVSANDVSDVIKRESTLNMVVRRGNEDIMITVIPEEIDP
Protocol: Proteins were submitted to reduction by incubation with 5 mM dithiotreitol in 50 mM ammonium bicarbonate (AmBic) for 30 min at 37° C., then alkylation with 15 mM iodoacetamide in 50 mM AmBic for 30 min, RT. Tryptic digestion was performed with a protein/enzyme ratio of 25/1 at 37° C. overnight in 50 mM AmBic.
Peptide mixtures were supplemented with formic acid to a final concentration of 0.1% and analyzed on a U3000 nanoLC (Thermo) coupled to an HCTultra ion trap (Bruker). Peptides were concentrated and desalted for 5 min on a precolumm RP-C18 (5 mm, 300 μm i.d., 100 Å, Thermo) with a mobile phase A (2% ACN/0.1% formic acid) at a flow rate of 20 μL/min then separated on an analytical column RP-C18 (15 cm, 75 μm i.d., 100 Å, Dionex) at a flow rate of 300 nL/min. Elution gradient was run from 2% to 10% of solvent B (95% ACN/0.1% formic acid) in 10 min then 10% to 35% B in 60 min and 35% to 50% B in 10 min. The ion trap was used in the positive mode with the selection of 8 precursors from each MS spectrum for fragmentation by collision induced dissociation (CID). […]
Tryptic peptides were also analyzed by MALDI-TOF MS on an Autoflex speed (Bruker) in positive reflectron mode in the mass range 700-4000 m/z using α-Cyano-4-hydroxycinnamic acid as the matrix (0.9 mg/mL CHCA in 85% CAN, 0.1% TFA, 10 mM ammonium phosphate). […]

[3] = biological target: T1, HTRA1; assay: Co-incubation of recombinant TSP1 or TSP2 with recombinant HTRA1 (Coomassie staining, Western blot); type: biochemical; conditions: co-incubation at 37° C. for 24 h, Coomassie gel
Protocol: WB analysis was performed using a monoclonal anti-TSP1 antibody (Abeam), as previously described (Houssier et al., PLoS Med. 2008, 5:e39). RT-PCRs primers were ordered from Taqman, reference: Hs01016151_m1.
Western blot analysis of the proteins confirmed the disappearance of the whole sized TSP1 and the appearance of several smaller bands in the co-incubated condition (FIG. 3A). […] Next the functionality of rTSP1 and HTRA1-digested TSP1 was analyzed in laser-induced subretinal inflammation in vivo. […] Accordingly, associated choroidal neovascularization, measured as the surface covered by CD102^−CNV on choroidal flatmounts at d7, underwent the same differences (FIG. 3D).

Chain of CD47 (Q08722 19-323, species assumed): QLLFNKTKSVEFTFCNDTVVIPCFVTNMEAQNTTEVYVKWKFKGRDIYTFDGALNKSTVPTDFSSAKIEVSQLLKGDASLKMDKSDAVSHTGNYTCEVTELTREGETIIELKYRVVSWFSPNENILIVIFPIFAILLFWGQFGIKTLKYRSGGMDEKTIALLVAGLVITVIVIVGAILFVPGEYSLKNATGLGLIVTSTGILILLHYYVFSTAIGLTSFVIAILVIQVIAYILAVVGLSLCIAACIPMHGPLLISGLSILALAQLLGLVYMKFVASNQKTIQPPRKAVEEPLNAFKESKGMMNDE

distinct sites proteolyzed by HTRA1 [2]: 5 sites
degradation by recombinant HTRA1 [3]: degrades
Substance: recombinant TSP1: recombinant human TSP1 (R&D Systems), natural ligand and agonist of CD47
half maximal effective concentration (EC50) relative to CD47-activating peptides or TSP2 [1]: much lower
